Measurements taken from paper doi:10.1101/2024.09.22.614354 (bioRxiv, 2024).
Numbering of substitutions follows the chain as printed. Like-named read-outs stand apart in the source and are kept apart here.

What was measured:
Experiment in all cases: fluorescence polarisation
[1] = target: T1, wild type Rb pocket domain (Rb^P) (human, UniProt P06400 380-788)
T1 sequence: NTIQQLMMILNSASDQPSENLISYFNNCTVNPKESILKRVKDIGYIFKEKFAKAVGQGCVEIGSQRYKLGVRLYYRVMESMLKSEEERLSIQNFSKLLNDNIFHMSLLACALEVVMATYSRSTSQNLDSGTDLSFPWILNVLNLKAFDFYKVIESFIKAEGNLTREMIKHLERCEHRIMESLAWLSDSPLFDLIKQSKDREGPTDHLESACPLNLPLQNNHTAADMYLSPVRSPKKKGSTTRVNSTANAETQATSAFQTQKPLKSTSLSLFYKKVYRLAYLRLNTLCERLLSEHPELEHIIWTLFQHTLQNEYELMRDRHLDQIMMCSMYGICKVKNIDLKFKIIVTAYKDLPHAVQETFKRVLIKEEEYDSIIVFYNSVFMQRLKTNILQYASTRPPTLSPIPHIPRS

[2] = target: T2, Rb^P M704V (human, UniProt P06400 380-788, M704V)
T2 sequence: T1 sequence with M325V

[3] = target: T3, Rb^P E554K (human, UniProt P06400 380-788, E554K)
T3 sequence: T1 sequence with E175K

[4] = target: T4, Rb^P S751Y (human, UniProt P06400 380-788, S751Y)
T4 sequence: T1 sequence with S372Y

[5] = target: T1, wild type Rb pocket domain (Rb^P); remark: listed apart in the source
[6] = target: T5, Rb^P I703F (human, UniProt P06400 380-788, I703F)
T5 sequence: T1 sequence with I324F

DLYCYEQLN (not fully specified; TMR fluorescent label (TMR-E7^LxCxE)) [TMR-E7^LxCxE (LxCxE peptide of the E7 oncoprotein from HPV, TMR-labeled)]
Kd [1]: 7 nM
Kd [2]: 14 nM
Kd [3]: 24 nM
Kd [4]: 12 nM
Kd [5]: 5 nM
Kd [6]: 16 nM
